In the DeepSol protein solubility set:

Assay: soluble on expression in E. coli; label from the status in PepcDB or PDB records
For “MASSYSASAEPARVRALVYGHHGDPAKVVELKNLELAAVRGSDVRVKMLAAPINPSDINMIQGNYGLLPELPAVGGNEGVAQVVAVGSNVTGLKPGDWVIPANAGLGTWRTEAVFSEEALIQVPSDIPLQSAATLGVNPCTAYRMLMDFEQLQPGDSVIQNASNSGVGQAVIQIAAALGLRTINVVRDRPDIQKLSDRLKSLGAEHVITEEELRRPEMKNFFKDMPQPRLALNCVGGKSSTELLRQLARGGTMVTYGGMAKQPVVASVSLLIFKDLKLRGFWLSQWKKDHSPDQFKELILTLCDLIRRGQLTAPACSQVPLQDYQSALEASMKPFISSKQILTM”, the “soluble on expression in E. coli” value was “soluble”. For “MASTAAETEKPEDHNDLVQLCNPHIAAMKEDILYHFSLSTSTHDFPAMFGDVKFVCVGGSPSRMKAFIKYVAMELGFAHPGADYPNICEGTDRYAMFKVGPVLSVSHGMGVPSIAIMLHELIKLLYHAHCSGVTLIRIGTSGGIGLEPGSVVITRQAVDPCFKPEFEQIVLGKREVRNTDLDEQLVQELARCSAELGEFPTVVGNTMCTLDFYEGQGRLDGALCSYTEKDKQDYLRAAYAAGIRNIEMEASVFAAMCNACGLRAAVVCVTLLNRLEGDQISSPHDVLAEYQQRPQRLVGQFIKKRLMQA”, the “soluble on expression in E. coli” value was “soluble”. For “MASYKQNLPPSALIKQQVNVADKKSKAEVQRDRQLEEDRKAGTAPAMVDVQTGRDINPHIPMFISQNPWYVPSEGPTLKHQRPHEEREKKMTQIHEWYQKGTTGKSATKFRKGACENCGAMGHQKRDCFDRPRKSNAKETNDNIAEDDYVQPNLTLGFDAKRDRWNGYDPSTHKQVIEDYEHLEEARKVVREHEMKEGEVEPATTEDGAPKDEDMYAEDADMAGVSVDMDSRTRITVRNLRIREDTAKYLYNLAENSPYYDPKSRSMRENPFAGVAGKELEAARFSGDNFVRYSGEVTAANEAQVFAWQATRGGVYAHSIAEPTKLEALKKEYEKEKSTLKNETQKELLDKYGGGEHMERPADELLLAQTESYIEYNRKGKVIKGKEKVAISSRFKEDIYPQNHTSVFGSFWREGRWGYKCCHQFVKNSYCTGKQGIEAETSAAKGTTTSNEEIFKVPKLVEKTEVKEEKEKEDSIKDEVAEENSDNDNDEEKEKVSEKSISPSPPSDDEEKEKEREKERLIEKERRERDQRRRDKKREKRERKKAKLGKRKRRHRDSDDESDPSSGSGSESDSDEEMRKAMKKAKREKAEGMKAAREGDRGRKYNTDYSNTAPNEKEMEAYRVTSVHSADPMAAYMNSKFEKKHTK”, the “soluble on expression in E. coli” value was “not soluble”. For “MATDHIRYDVLARDALRGVLRHVLTDVAQHGLPGEHHFFITFQSKGDGVKLSPRLLAQYPEEMTVVLQHQFWDLVVTEDRFEVGLSFGGIPERLVVPFASIKSFFDPSVKFGLQFEAADEVDETGEADDGTELVTAAPAPVALPTSSATTDSSAPSDDEPPRSGEGAEVVRLDRFRKKLEHHHHHH”, the “soluble on expression in E. coli” value was “soluble”. For “MATEAPTQSYSEQWYWDDRYKNESEPFDWYQKYSPLAPLINLYVPQRNQRVLVIGCGNSAFSEGMVDDGYEDVVSIDISSVVIDTMIKKYSDRPQLKYLKMDVRDMKAFEDASFDAVIDKGTLDSILCGSNSRQYSTQMLEEVWRVLKDKGVYILITYGAPIYRLRLFKESCSWTTKLHVIDKSLTDQPLDTPKWELTKPLPLDADGSSVESAIGKNPDVHYIYVCIKDESSKMEADAA”, the “soluble on expression in E. coli” value was “soluble”. For “MATESGSDSQLRRRRRRDPEGSEKTELSEREPALAVAGSEENDDENEERWVGPLPVEATLAKKRKVLEFERVYLDNLPSASMYERSYMHRDVITHVVCTKTDFIITASHDGHVKFWKKIEEGIEFVKHFRSHLGVIESIAVSSEGALFCSVGDDKAMKVFDVVNFDMINMLKLGYFPGQCEWIYCPGDAISSVAASEKSTGKIFIYDGRGDNQPLHIFDKLHVSPLTQIRLNPVYKAVVSSDKSGMIEYWTGPPHEYKFPKNVNWEYKTDTDLYEFAKCKAYPTSICFSPDGKKIATIGSDRKVRIFRFLTGKLMRVFDESLSMFTELQQMRQQLPDMEFGRRMAVERELEKVDAVRLVNIVFDETGHFVLYGTMLGIKVINVEPNRCVRILGKQENIRVMQLALFQGIAKKHRAAATIEMKASENPVLQNIQADPTIVCTSFKKNRFYMFTKRETEDTKTADSDRDVFNEKPSKEEVMAATQAEGPKRVSDSAIVHTSMGDIHIKLFPVECPKTVENFCVHSRNGYYNGHTFHRIIKGFMIQTGDPTGTGMGGESIWGGEFEDEFHSTLRHDRPYTLSMANAGSNTNGSQFFITVVPTPWLDNKHTVFGRVSKGMEVVQRIFNVKVNPQTDKPYEDVSIINITVK”, the “soluble on expression in E. coli” value was “soluble”. With “MATESSSPSSVRKVVVHLRATGGAPILKQSKFKIPGTDKFAKVIDFLRRQLHSDSLFVYVNSAFSPNPDESVIDLYNNFGFDGKLVVNYACSMAWG” the “soluble on expression in E. coli” value was “not soluble”. In the case of “MATFVPFVTCLDTGFWNEVNKKKLNDWKLDETPKCISSQLSLHQTEGFKCHLSLSYDSLSSLESTTGLSMSGTLLLYNTIESFKMVDKSDLIRSEAEKIWESITTRKWLQNPRLLSQFFIIAFADLKKFKYYYWTCVPALVYPSEIKQEITPLSSLGADHKILFDFYRKNNFPIFLYSKQSSKMLELSELENNTNPDEICVVVADPSPVAYSAGWMVRNVLAAVAHLHPTWKHCHIISLRSADSIGIKYTWTLPSAECSADGAQNAVPKAVGWERNANDKLQPISVDLSKEFDPKILMERSVDLNLSLIKWRLHPDIQLERYSQLKVLILGAGTLGCNIARCLIGWGVRHISFLDNSTVSYNNPVRQSLSEFEDARLGRGKAETAQAAIQRIFPSIQATAHRLTVPMPGHSIDEKDVPELEKDIAKLEQLVKDHDVVFLALDSREARWLPTVLASRHKKIAISVAIGFDTYVIIRHGIGSRSESVSDVSSSDSVPYSQLSCYFCSDVTAPGNSTFDRTLDQQCTVARPGTSMIASGIAVELLSSVLQYPDPLKTPASHDDNTTVLGAAPHQIRGFLGRFQQILPSVKRFDQCVACGDAIAAQFQQNGWKFVRDVMNSPGRLEEVTGLDELQNSVNAIDIDFEDDEDF”, the “soluble on expression in E. coli” value is reported as “soluble”. With “MATHVAIIGNGVGGFTTAQALRAEGFEGRISLIGDEPHLPYDRPSLSKAVLDGSLERPPILAEADWYGEARIDMLTGPEVTALDVQTRTISLDDGTTLSADAIVIATGSRARTMALPGSQLPGVVTLRTYGDVQVLRDSWTSATRLLIVGGGLIGCEVATTARKLGLSVTILEAGDELLVRVLGRRIGAWLRGLLTELGVQVELGTGVVGFSGEGQLEQVMASDGRSFVADSALICVGAEPADQLARQAGLACDRGVIVDHCGATLAKGVFAVGDVASWPLRAGGRRSLETYMNAQRQAAAVAAAILGKNVSAPQLPVSWTEIAGHRMQMAGDIEGPGDFVSRGMPGSGAALLFRLQERRIQAVVAVDAPRDFALATRLVEARAAIEPARLADLSNSMRDFVRANEGDLT” the “soluble on expression in E. coli” value was “soluble”. With “MATIRIHDEANTTIENQEEVASFLDSQEVIYEQWDITRLPEHLSEKYDLTEEEKQQILDTFETEIKDISTRRGYKAQDVISLSDSNPKLDELLENFKREHHHTDDEVRFIVSGHGIFVIQGQDGTFFDVRLNPGDLISVPENIRHYFTLQEDRKVVAVRIFVTTEGWVPIYEKDSVNQLEHHHHHH” the “soluble on expression in E. coli” value was “not soluble”. For “MATKLTPKQKAQLDELSMSEKIAILLIQVGEDTTGEILRHLDIDSITEISKQIVQLNGTDKQIGAAVLEEFFAIFQSNQYINTGGLEYARELLTRTLGSEEAKKVMDKLTKSLQTQKNFAYLGKIKPQQLADFIINEHPQTIALILAHMEAPNAAETLSYFPDEMKAEISIRMANLGEISPQVVKRVSTVLENKLESLTSYKIEVGGLRAVAEIFNRLGQKSAKTTLARIESVDNKLAGAIKEMMFTFEDIVKLDNFAIREILKVADKKDLSLALKTSTKDLTDKFLNNMSSRAAEQFVEEMQYLGAVKIKDVDVAQRKIIEIVQSLQEKGVIQTGEEEDVIE”, the “soluble on expression in E. coli” value was “not soluble”. With “MATLLEQLSTMTVVVADTGDLDAIRKFTPRDATTNPSLILAAAQIPAYQSLIDEALHSSRQLLGNSAAVEEVVHEALDEICVIFGKEILKIVPGRVSTEVDARLSFNTEATIAKAHKLIGLYNDAGITNDRVLIKIASTWEGIKAAEVLEKDGIHCNLTLLFGFSQAVACAEAGVTLISPFVGRILDWYKASTGRDSYAGPEDPGVISVTKIFNYFKTYDYKTEIMGASFRNLDEIIELAGCDLLTISPKLLDQLGSTEAPLKRKLDAVNPVAAESQIHVDKESFESMMRADRMAFEKLDEGIRGFSKAIETLEAQLAHRLAVLEGGAAFCHVVQEIFMLNDLDGDGCITREEWLGSDAVFDALDHDHDGRLLQEDVRSGLGAALALTTA” the “soluble on expression in E. coli” value was “not soluble”. In the case of “MATLLFFSKPISDFVLGDKVGFDAKILESNDRILLIKPLQIGVDSNISVIDNEGKIFSFYVFSTTFTSSKHPNLQVFIEDKNYYSNAFLKPQKENMAENAPKDAPTNNKPLKEEKEETKEKEEETITIGDNTNAMKIVKKDIQKGYKALKSSQRKWYCLGICSKKSKLSLMPKEIFNDKQFTYFKFDKRLALSKFPVIYKVVDGYDNPVNTRIVGDYIIAEDVSAKWTLRLGKDYLCIRFVKKAKDE”, the “soluble on expression in E. coli” value is reported as “not soluble”. For “MATPEGQAEEKAVKLAAEEINAQGGILGYKVEVVVGDTKLDSNTATSEFRRLATVENADVIIGGFSSGVMTAMMETMAETKTLFLSDASSPAHAQKVEQNYEKYKYWFRVSQNNGSTFALDLADMVKFLRDSGYEVKKVYIIRDEHVWTDPVMAALKPLLEEMGVEIVKDVKIPRGYSEYEQLILEAESLNADLIMPILAISGTGDVLAKQWATLKPNLLLAGHDLAPIDPEFYEKTNGMANYEIFLADGGALVTAPPTEKCREFVEAYKAKYGHYPESHQAYGAYDAVYLYKMVVEMAAKNGEKDPFNPDVLVKYLEKFDASNPVKLTRTIAFYPNHDLMWGDDYVRNWISQWQDGKQYIIYPPSVANGELKLPPWIEK”, the “soluble on expression in E. coli” value was “not soluble”. With “MATVAFQTLGCKVNHYETEAIWQLFKGEGYEKVDFEQMADVYVINTCTVTNTGDKKSRQVIRRAIRKNPDAVICVTGCYAQTSPAEVMAIPGVDIVVGTQDRKKMLEYIEQYKKERQPINGVGNIMKSRVYEELDVPAFTDRTRASLKIQEGCNNFCTFCIIPWARGLMRSRDPKEVIKQAEQLVQAGYKEIVLTGIHTGGYGEDLKDYSLARLLEDLEQVNGLKRIRISSIEASQLTDEVIEVIDRSTKVVRHLHIPLQSGSDTVLKRMRRKYTMAFFAERLERLREALPGLAVTSDVIVGFPGETEAEFQETYDFIAKHKFSELHVFPYSKRTGTPAARMEDQVNEDVKNERVHRLIQLSDQLAKEYASQFEGEVLEMIPEERDKEEPNSGLYVGYTDNYLKVKIPATDEMIGKLVKVKITKAGYPYNEGEFVRVLDEEPQAVAHGLEHHHHHH” the “soluble on expression in E. coli” value was “soluble”. For “MAVDVFITAPSSTPLACEMTISKLVLASGSPRRRELLAQMGYQFEVVVPNVEEKRAAAESPAQYVERLSRDKALAGAALVAAEAVVIGSDTIVVKDQQVLEKPRDFADAKRMLLKLSGSQHQVMTGVSVTCRGITHSVVVTTEVWFKTLSEQEIEAYWQSGEPCDKAGSYGIQGLGGRFVTRIEGSYHAVVGLPLYETDQLLHKF”, the “soluble on expression in E. coli” value was “not soluble”. For “MAVELPKAAIERIFRQGIGERRLSQDAKDTIYDFVPTMAEYVANAAKSVLDASGKKTLMEEHLKALADVLMVEGVEDYDGELFGRATVRRILKRAGIERASSDAVDLYNKLICRATEELGEKAAEYADEDGRKTVQGEDVEKAITYSMPKGGEL”, the “soluble on expression in E. coli” value was “soluble”. With “MAVGKNKGLSKGGKKGGKKKVVDPFSRKDWYDVKAPNMFQTRQIGKTLVNRTQGQRIASDYLKGRVFEVSLADLQKDIDPERSFRKFRLIAEDVQDRNVLCNFHGMDLTTDKYRSMVKKWQTLIEAIVEAKTVDGYLLRVFCIGFTAKDQQSQRKTCYAQQSQVRKIRARMTDIITNEVSGADLKQLVNKLALDSIAKDIEKSCQRIYPLHDVYIRKVKVLKKPRFDVSKLLELHGDGGGKSVEAVVSSEGAVIDRPEGYEPPVQEAVLEHHHHHH” the “soluble on expression in E. coli” value was “soluble”. For “MAVIVRKWFGLGRLPADLRCQVEAEGLIYLAEYVAVTRRFTGVIPGLRASHSIASYVGALAFTEQRVLGTLSMVPKLAGRVVDARWDGPQAGAATAEISPTGLQLDLDVADVDPKFSGQLALHFKATIGEDVLSRLPRRSLAFDVPAEYVNLAVGVTYSP”, the “soluble on expression in E. coli” value was “soluble”.
